Data: publication PMC12753876, “The CRY1-HsF predicted interaction interface serves as a molecular platform for bioengineering or selecting modulating mutants” (Frontiers in Plant Science, 2025)

Columns and labels:
Assay in all cases: two-hybrid; CRY1 as prey in pGADT7 (AD), HsF as bait in pGBKT7 (BD), co-transformed into yeast Y187; liquid beta-galactosidase assay with CPRG, Miller units; not detected (ND) if OD578 <0.01 after 3 h of color development
Details in all cases: partners not purified
[1] = target: T1, HsFA3^E173A in pGBKT7 (BD) (Arabidopsis thaliana, UniProt Q8GYY1 1-412, E173A)
T1 construct: source: yeast two-hybrid fusion (yeast Y187)

HsFA6b^WT in pGBKT7 (BD) = target: T2, HsFA6b^WT in pGBKT7 (BD) (Arabidopsis thaliana, UniProt Q9LUH8 1-406)
T2 construct: source: yeast two-hybrid fusion (yeast Y187)

[2] = target: T3, HsFA3^E188A in pGBKT7 (BD) (Arabidopsis thaliana, UniProt Q8GYY1 1-412, E188A)
T3 construct: Not in the list of plasmids of the methods; source: yeast two-hybrid fusion (yeast Y187)

HsFA3^WT in pGBKT7 (BD) = target: T4, HsFA3^WT in pGBKT7 (BD) (Arabidopsis thaliana, UniProt Q8GYY1 1-412)
T4 construct: also called AtHsFA3; source: yeast two-hybrid fusion (yeast Y187)

HsFA7a in pGBKT7 (BD) = target: T5, HsFA7a in pGBKT7 (BD) (Arabidopsis thaliana, UniProt Q9SV12 1-272)
T5 construct: also called HsFA7^WT; source: yeast two-hybrid fusion (yeast Y187)

[3] = target: T6, HsFA3^E178A in pGBKT7 (BD) (Arabidopsis thaliana, UniProt Q8GYY1 1-412, E178A)
T6 construct: source: yeast two-hybrid fusion (yeast Y187)

[4] = target: T7, HsFC1^R129E in pGBKT7 (BD) (Arabidopsis thaliana, UniProt Q9LV52 1-330, R129E)
T7 construct: source: yeast two-hybrid fusion (yeast Y187)

HsFA1d^WT in pGBKT7 (BD) = target: T8, HsFA1d^WT in pGBKT7 (BD) (Arabidopsis thaliana, UniProt Q9LQM7 1-485)
T8 construct: source: yeast two-hybrid fusion (yeast Y187)

[5] = target: T9, HsFA3^K174A in pGBKT7 (BD) (Arabidopsis thaliana, UniProt Q8GYY1 1-412, K174A)
T9 construct: source: yeast two-hybrid fusion (yeast Y187)

HsFA6a^WT in pGBKT7 (BD) = target: T10, HsFA6a^WT in pGBKT7 (BD) (Arabidopsis thaliana, UniProt Q1PDN3 1-282)
T10 construct: source: yeast two-hybrid fusion (yeast Y187)
T10 sequence (looked up): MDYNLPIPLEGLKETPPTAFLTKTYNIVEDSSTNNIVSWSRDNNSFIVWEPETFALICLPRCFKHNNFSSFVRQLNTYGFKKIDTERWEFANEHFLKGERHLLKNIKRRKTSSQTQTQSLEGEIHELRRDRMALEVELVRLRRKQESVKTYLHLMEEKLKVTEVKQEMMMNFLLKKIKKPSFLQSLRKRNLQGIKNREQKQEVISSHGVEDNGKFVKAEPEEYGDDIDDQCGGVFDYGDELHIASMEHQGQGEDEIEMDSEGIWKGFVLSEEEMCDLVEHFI

[6] = target: T11, HsFA3^K177A in pGBKT7 (BD) (Arabidopsis thaliana, UniProt Q8GYY1 1-412, K177A)
T11 construct: source: yeast two-hybrid fusion (yeast Y187)

HsFC1^WT in pGBKT7 (BD) = target: T12, HsFC1^WT in pGBKT7 (BD) (Arabidopsis thaliana, UniProt Q9LV52 1-330)
T12 construct: source: yeast two-hybrid fusion (yeast Y187)
T12 sequence (Q9LV52 whole entry, the tested form may be a part): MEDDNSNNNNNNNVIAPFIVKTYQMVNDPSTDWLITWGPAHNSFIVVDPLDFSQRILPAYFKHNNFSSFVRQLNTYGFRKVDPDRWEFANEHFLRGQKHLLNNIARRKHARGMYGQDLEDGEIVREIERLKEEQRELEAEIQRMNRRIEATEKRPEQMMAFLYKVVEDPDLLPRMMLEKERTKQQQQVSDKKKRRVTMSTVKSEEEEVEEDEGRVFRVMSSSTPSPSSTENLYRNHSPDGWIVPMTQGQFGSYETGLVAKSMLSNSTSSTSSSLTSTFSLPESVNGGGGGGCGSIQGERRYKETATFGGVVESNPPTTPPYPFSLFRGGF

T4 sequence (Q8GYY1 whole entry, the tested form may be a part): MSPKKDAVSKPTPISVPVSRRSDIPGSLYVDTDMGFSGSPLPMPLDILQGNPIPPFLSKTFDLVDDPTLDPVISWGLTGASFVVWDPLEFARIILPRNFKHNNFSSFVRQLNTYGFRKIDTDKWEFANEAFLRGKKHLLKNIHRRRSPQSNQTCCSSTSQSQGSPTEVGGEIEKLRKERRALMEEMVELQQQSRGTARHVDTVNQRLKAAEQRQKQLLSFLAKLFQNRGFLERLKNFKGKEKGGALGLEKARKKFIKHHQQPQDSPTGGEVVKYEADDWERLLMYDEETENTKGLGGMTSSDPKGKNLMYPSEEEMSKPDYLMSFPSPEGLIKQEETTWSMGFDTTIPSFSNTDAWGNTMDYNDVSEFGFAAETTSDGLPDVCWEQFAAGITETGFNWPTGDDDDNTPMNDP
T11 sequence (Q8GYY1 whole entry K177A, the tested form may be a part): as the sequence (Q8GYY1 whole entry, the tested form may be a part) above, with K177A counted along it
T5 sequence (Q9SV12 whole entry, the tested form may be a part): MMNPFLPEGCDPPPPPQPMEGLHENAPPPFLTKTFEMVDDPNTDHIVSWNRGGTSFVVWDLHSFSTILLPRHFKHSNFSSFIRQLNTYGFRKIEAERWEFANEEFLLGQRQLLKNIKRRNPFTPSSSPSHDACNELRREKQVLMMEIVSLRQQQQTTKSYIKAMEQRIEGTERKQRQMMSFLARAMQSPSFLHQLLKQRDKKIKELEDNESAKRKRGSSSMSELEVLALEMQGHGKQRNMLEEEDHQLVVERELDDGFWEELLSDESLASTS
T1 sequence (Q8GYY1 whole entry E173A, the tested form may be a part): as the sequence (Q8GYY1 whole entry, the tested form may be a part) above, with E173A counted along it
T3 sequence (Q8GYY1 whole entry E188A, the tested form may be a part): as the sequence (Q8GYY1 whole entry, the tested form may be a part) above, with E188A counted along it
T9 sequence (Q8GYY1 whole entry K174A, the tested form may be a part): as the sequence (Q8GYY1 whole entry, the tested form may be a part) above, with K174A counted along it
T2 sequence (Q9LUH8 whole entry, the tested form may be a part): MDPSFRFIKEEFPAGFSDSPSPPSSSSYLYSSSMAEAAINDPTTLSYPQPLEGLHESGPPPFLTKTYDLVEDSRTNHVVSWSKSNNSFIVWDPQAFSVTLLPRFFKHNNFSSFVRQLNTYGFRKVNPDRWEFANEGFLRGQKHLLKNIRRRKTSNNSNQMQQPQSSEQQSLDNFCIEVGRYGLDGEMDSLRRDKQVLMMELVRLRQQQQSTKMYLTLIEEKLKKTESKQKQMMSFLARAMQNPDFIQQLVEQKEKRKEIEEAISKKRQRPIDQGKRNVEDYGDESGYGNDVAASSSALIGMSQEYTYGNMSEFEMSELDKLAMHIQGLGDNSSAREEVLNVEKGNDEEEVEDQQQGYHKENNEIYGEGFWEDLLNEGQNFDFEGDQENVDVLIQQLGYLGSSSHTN
T6 sequence (Q8GYY1 whole entry E178A, the tested form may be a part): as the sequence (Q8GYY1 whole entry, the tested form may be a part) above, with E178A counted along it
T7 sequence (Q9LV52 whole entry R129E, the tested form may be a part): as the sequence (Q9LV52 whole entry, the tested form may be a part) above, with R129E counted along it
T8 sequence (Q9LQM7 whole entry, the tested form may be a part): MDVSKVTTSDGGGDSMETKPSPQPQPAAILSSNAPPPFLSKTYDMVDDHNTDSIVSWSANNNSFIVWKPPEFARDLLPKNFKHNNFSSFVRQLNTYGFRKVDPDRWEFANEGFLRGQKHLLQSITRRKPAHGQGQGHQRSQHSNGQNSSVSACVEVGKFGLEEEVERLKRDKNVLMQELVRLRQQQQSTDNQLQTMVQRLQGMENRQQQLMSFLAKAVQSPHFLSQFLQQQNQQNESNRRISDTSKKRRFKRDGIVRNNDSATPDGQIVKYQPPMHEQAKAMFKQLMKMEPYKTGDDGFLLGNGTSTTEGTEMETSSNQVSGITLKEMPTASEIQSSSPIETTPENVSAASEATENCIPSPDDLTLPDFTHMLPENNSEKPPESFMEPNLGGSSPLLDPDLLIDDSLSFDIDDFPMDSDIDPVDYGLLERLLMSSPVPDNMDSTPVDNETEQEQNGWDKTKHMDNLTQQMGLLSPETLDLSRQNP

B1: CRY1^(PHR WT) in pGADT7 (AD) (domain or fragment, Arabidopsis thaliana, UniProt Q43125 1-508, looked up)
chain: MSGSVSGCGSGGCSIVWFRRDLRVEDNPALAAAVRAGPVIALFVWAPEEEGHYHPGRVSRWWLKNSLAQLDSSLRSLGTCLITKRSTDSVASLLDVVKSTGASQIFFNHLYDPLSLVRDHRAKDVLTAQGIAVRSFNADLLYEPWEVTDELGRPFSMFAAFWERCLSMPYDPESPLLPPKKIISGDVSKCVADPLVFEDDSEKGSNALLARAWSPGWSNGDKALTTFINGPLLEYSKNRRKADSATTSFLSPHLHFGEVSVRKVFHLVRIKQVAWANEGNEAGEESVNLFLKSIGLREYSRYISFNHPYSHERPLLGHLKFFPWAVDENYFKAWRQGRTGYPLVDAGMRELWATGWLHDRIRVVVSSFFVKVLQLPWRWGMKYFWDTLLDADLESDALGWQYITGTLPDSREFDRIDNPQFEGYKFDPNGEYVRRWLPELSRLPTDWIHHPWNAPESVLQAAGIELGSNYPLPIVGLDEAKARLHEALSQMWQLEAASRAAIENGSEE
notes: cryptochrome 1 (AtCRY1), Arabidopsis thaliana, PHR domain, residues 1-508; also called CRY1 PHR domain; source: yeast two-hybrid fusion (yeast Y187)
- decrease of Y2H interaction relative to WT [1]: 29%
- beta-galactosidase activity (Miller units) (HsFA6b^WT in pGBKT7 (BD)): 45 Miller units
- decrease of Y2H interaction relative to WT [2]: 61%
- beta-galactosidase activity (Miller units) (HsFA3^WT in pGBKT7 (BD)): 250 Miller units
- beta-galactosidase activity (Miller units) (HsFA7a in pGBKT7 (BD)): 25 Miller units
- fold change of Miller units relative to WT [3]: 2 fold
- fold increase of Y2H interaction relative to WT [4]: ~10 fold
- beta-galactosidase activity (Miller units) (HsFA1d^WT in pGBKT7 (BD)): 7 Miller units
- decrease of Y2H interaction relative to WT [5]: 64%
- beta-galactosidase activity (Miller units) (HsFA6a^WT in pGBKT7 (BD)): < 0.5 Miller units
- decrease of Y2H interaction relative to WT [6]: 62%
- beta-galactosidase activity (Miller units) (HsFC1^WT in pGBKT7 (BD)): < 0.5 Miller units

B2: CRY1^(PHR R435A) in pGADT7 (AD) (domain or fragment, Arabidopsis thaliana, UniProt Q43125 1-508, looked up)
chain: MSGSVSGCGSGGCSIVWFRRDLRVEDNPALAAAVRAGPVIALFVWAPEEEGHYHPGRVSRWWLKNSLAQLDSSLRSLGTCLITKRSTDSVASLLDVVKSTGASQIFFNHLYDPLSLVRDHRAKDVLTAQGIAVRSFNADLLYEPWEVTDELGRPFSMFAAFWERCLSMPYDPESPLLPPKKIISGDVSKCVADPLVFEDDSEKGSNALLARAWSPGWSNGDKALTTFINGPLLEYSKNRRKADSATTSFLSPHLHFGEVSVRKVFHLVRIKQVAWANEGNEAGEESVNLFLKSIGLREYSRYISFNHPYSHERPLLGHLKFFPWAVDENYFKAWRQGRTGYPLVDAGMRELWATGWLHDRIRVVVSSFFVKVLQLPWRWGMKYFWDTLLDADLESDALGWQYITGTLPDSREFDRIDNPQFEGYKFDPNGEYVRAWLPELSRLPTDWIHHPWNAPESVLQAAGIELGSNYPLPIVGLDEAKARLHEALSQMWQLEAASRAAIENGSEE
notes: cryptochrome 1 (AtCRY1), Arabidopsis thaliana, PHR domain, residues 1-508; also called CRY1^R435A; source: yeast two-hybrid fusion (yeast Y187)
- decrease of Y2H interaction relative to WT (HsFA3^WT in pGBKT7 (BD)): 12%

B3: CRY1^(PHR K332A) in pGADT7 (AD) (domain or fragment, Arabidopsis thaliana, UniProt Q43125 1-508, looked up)
chain: MSGSVSGCGSGGCSIVWFRRDLRVEDNPALAAAVRAGPVIALFVWAPEEEGHYHPGRVSRWWLKNSLAQLDSSLRSLGTCLITKRSTDSVASLLDVVKSTGASQIFFNHLYDPLSLVRDHRAKDVLTAQGIAVRSFNADLLYEPWEVTDELGRPFSMFAAFWERCLSMPYDPESPLLPPKKIISGDVSKCVADPLVFEDDSEKGSNALLARAWSPGWSNGDKALTTFINGPLLEYSKNRRKADSATTSFLSPHLHFGEVSVRKVFHLVRIKQVAWANEGNEAGEESVNLFLKSIGLREYSRYISFNHPYSHERPLLGHLKFFPWAVDENYFAAWRQGRTGYPLVDAGMRELWATGWLHDRIRVVVSSFFVKVLQLPWRWGMKYFWDTLLDADLESDALGWQYITGTLPDSREFDRIDNPQFEGYKFDPNGEYVRRWLPELSRLPTDWIHHPWNAPESVLQAAGIELGSNYPLPIVGLDEAKARLHEALSQMWQLEAASRAAIENGSEE
notes: cryptochrome 1 (AtCRY1), Arabidopsis thaliana, PHR domain, residues 1-508; source: yeast two-hybrid fusion (yeast Y187)
- decrease of Y2H interaction relative to WT (HsFA3^WT in pGBKT7 (BD)): 56%

B4: CRY1^(PHR W352A) in pGADT7 (AD) (domain or fragment, Arabidopsis thaliana, UniProt Q43125 1-508, looked up)
chain: MSGSVSGCGSGGCSIVWFRRDLRVEDNPALAAAVRAGPVIALFVWAPEEEGHYHPGRVSRWWLKNSLAQLDSSLRSLGTCLITKRSTDSVASLLDVVKSTGASQIFFNHLYDPLSLVRDHRAKDVLTAQGIAVRSFNADLLYEPWEVTDELGRPFSMFAAFWERCLSMPYDPESPLLPPKKIISGDVSKCVADPLVFEDDSEKGSNALLARAWSPGWSNGDKALTTFINGPLLEYSKNRRKADSATTSFLSPHLHFGEVSVRKVFHLVRIKQVAWANEGNEAGEESVNLFLKSIGLREYSRYISFNHPYSHERPLLGHLKFFPWAVDENYFKAWRQGRTGYPLVDAGMRELAATGWLHDRIRVVVSSFFVKVLQLPWRWGMKYFWDTLLDADLESDALGWQYITGTLPDSREFDRIDNPQFEGYKFDPNGEYVRRWLPELSRLPTDWIHHPWNAPESVLQAAGIELGSNYPLPIVGLDEAKARLHEALSQMWQLEAASRAAIENGSEE
notes: cryptochrome 1 (AtCRY1), Arabidopsis thaliana, PHR domain, residues 1-508; also called CRY1^W352A; source: yeast two-hybrid fusion (yeast Y187)
- decrease of Y2H interaction relative to WT (HsFA3^WT in pGBKT7 (BD)): 51%

B5: CRY1^(PHR R335A) in pGADT7 (AD) (domain or fragment, Arabidopsis thaliana, UniProt Q43125 1-508, looked up)
chain: MSGSVSGCGSGGCSIVWFRRDLRVEDNPALAAAVRAGPVIALFVWAPEEEGHYHPGRVSRWWLKNSLAQLDSSLRSLGTCLITKRSTDSVASLLDVVKSTGASQIFFNHLYDPLSLVRDHRAKDVLTAQGIAVRSFNADLLYEPWEVTDELGRPFSMFAAFWERCLSMPYDPESPLLPPKKIISGDVSKCVADPLVFEDDSEKGSNALLARAWSPGWSNGDKALTTFINGPLLEYSKNRRKADSATTSFLSPHLHFGEVSVRKVFHLVRIKQVAWANEGNEAGEESVNLFLKSIGLREYSRYISFNHPYSHERPLLGHLKFFPWAVDENYFKAWAQGRTGYPLVDAGMRELWATGWLHDRIRVVVSSFFVKVLQLPWRWGMKYFWDTLLDADLESDALGWQYITGTLPDSREFDRIDNPQFEGYKFDPNGEYVRRWLPELSRLPTDWIHHPWNAPESVLQAAGIELGSNYPLPIVGLDEAKARLHEALSQMWQLEAASRAAIENGSEE
notes: as for B3
- decrease of Y2H interaction relative to WT (HsFA3^WT in pGBKT7 (BD)): 41%

B6: CRY1^(PHR R211A) in pGADT7 (AD) (domain or fragment, Arabidopsis thaliana, UniProt Q43125 1-508, looked up)
chain: MSGSVSGCGSGGCSIVWFRRDLRVEDNPALAAAVRAGPVIALFVWAPEEEGHYHPGRVSRWWLKNSLAQLDSSLRSLGTCLITKRSTDSVASLLDVVKSTGASQIFFNHLYDPLSLVRDHRAKDVLTAQGIAVRSFNADLLYEPWEVTDELGRPFSMFAAFWERCLSMPYDPESPLLPPKKIISGDVSKCVADPLVFEDDSEKGSNALLAAAWSPGWSNGDKALTTFINGPLLEYSKNRRKADSATTSFLSPHLHFGEVSVRKVFHLVRIKQVAWANEGNEAGEESVNLFLKSIGLREYSRYISFNHPYSHERPLLGHLKFFPWAVDENYFKAWRQGRTGYPLVDAGMRELWATGWLHDRIRVVVSSFFVKVLQLPWRWGMKYFWDTLLDADLESDALGWQYITGTLPDSREFDRIDNPQFEGYKFDPNGEYVRRWLPELSRLPTDWIHHPWNAPESVLQAAGIELGSNYPLPIVGLDEAKARLHEALSQMWQLEAASRAAIENGSEE
notes: cryptochrome 1 (AtCRY1), Arabidopsis thaliana, PHR domain, residues 1-508; also called CRY1^R211A; source: yeast two-hybrid fusion (yeast Y187)
- increase of Miller units relative to WT (HsFA3^WT in pGBKT7 (BD)): 27%
